Laboratory results reported in US20100278829A1, “DUAL INHIBITION OF IMMUNOPHILIN/CYCLOPHILIN FAMILY MEMBERS AND EMMPRIN IMMUNOGLOBULIN RECEPTOR SUPERFAMILY MEMBERS” (priority 2009, published 2010).

Target: T1, CypA (Homo sapiens, UniProt P62937)
T1 construct: CypA was purified as previously described; made in house; host or cells: E. coli BL21 (DE3)
Assay: NMR titration of 15N-CypA, binding isotherms
Details: chemical shift changes, 25° C.
Description: NMR sample preparation, spectroscopy, and data analysis. All NMR spectra were collected at 25° C. on a Varian 600-, 720- , 800-, or 900-MHz spectrometer in 50 mM NaPO4, pH 6.5, 150 mM NaCl, and 50 mM imidazole supplemented with 7% D2O. There were only modest changes to the resonance positions with imidazole present (data not shown), yet imidazole did increase the lifetime of each sample slightly and, thus, was maintained in all samples. Samples utilized for assignment purposes contained 0.5-1 mM protein, while all samples utilized for titration purposes contained 0.5 mM protein with the indicated final concentration of the titrant. All spectra were processed using NMRPipe software65 and analyzed using CCPNmr software.66 Unless otherwise noted, all pulse sequences were obtained from standard Varian Biopack libraries. Transverse relaxation optimized spectroscopy (i.e., TROSY-based) HSQC experiments were used only when noted.
NMR titration experiments were first conducted using 15N-CypA with unlabeled CD147, and chemical shift changes were only observed for extracellular recombinant CD147 constructs that included the membrane-proximal region of CD147 residues 206-214. […] However, both extracellular cyclophilin ligands of CD147, CypA and CypB, are known to readily traverse the membrane. […]

T1 sequence (P62937 whole entry): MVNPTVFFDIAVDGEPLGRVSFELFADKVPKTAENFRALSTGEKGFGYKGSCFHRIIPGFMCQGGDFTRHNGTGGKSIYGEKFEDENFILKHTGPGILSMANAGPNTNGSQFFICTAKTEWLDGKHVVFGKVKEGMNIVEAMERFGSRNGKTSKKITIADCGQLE

Kd: > 1 mM
B1: CD147: extracellular recombinant CD147 constructs that include membrane-proximal residues 206-214 (protein, UniProt P35613 138-323, looked up)
extracellular domain: EPGTVFTTVEDLGSKILLTCSLNDSATEVTGHRWLKGGVVLKEDALPGQKTEFKVDSDDQWGEYSCVFLPEPMGTANIQLHGPPRVKAVKSSEHINEGETAMLVCKSESVPPVTDWAWYKITDSEDKALMNGSESRFFVSSSQGRSELHIENLNMEADPGQYRCNGTSSKGSDQAIITLRVRSHLA
modifications: extracellular domain
